# From patent US8883967B2, “Branched amphipathic oligo-peptides that self-assemble into vesicles” (Kansas State University Research Foundation, priority 2009, dated 2014)
# No end group written: not given here.
# Assays:
# [1] = system: Human Lens Epithelial (HLE) cells; assay: Uptake of 5,6-carboxyfluorescein-loaded peptide vesicles by cells, fluorescence microscopy; type: cell-based; conditions: 12 hours of incubation, 37° C.
# Method: Human Lens Epithelial (HLE) cells were obtained from Dr. Dolores Takemoto's lab (Kansas State University). These adherent cells were grown to roughly 80% confluence on coverslips placed in 12 well plates with 1 ml Dulbecco's Modified Eagle Medium (DMEM), Stock solutions of bis(h9)-K-K4 and bis(h5)-K-K4 dissolved in DDI water were mixed together using the protocol described in Example 4 to achieve a final concentration of 0.025 mM of each peptide in the mixture and 600 μL final volume. The sample was then dried by spinning in a speed vacuum for about 3 hours until almost all of the solvent was removed. The dried sample was then rehydrated with a 0.5 mM solution of the fluorescent dye 5,6-carboxyfluorescein (MW=376.3 Da) dissolved in DDI water. The pH of the sample was adjusted to 7.4 using a dilute solution of NaOH. Next, 500 μL of the DMEM was replaced with the peptide vesicle solution loaded with 5,6-carboxyfluorescein. The cells were then allowed to grow at 37° C. under 5% CO2. At 4 hours and 12 hours after incubation with dye-loaded vesicles, the cells were washed twice with phosphate buffered saline (PBS) and fixed using 0.4% paraformaldehyde. The fixed cells were then mounted on a glass slide and pictures were taken using a fluorescence microscope. […]
# [2] = linear peptides, low and neutral pH; cited from earlier work
# [3] = Sedimentation analysis (analytical ultracentrifugation), N-acetyl capped peptides; type: physicochemical; conditions: 1 mM, DDI water, pH 7, 40,000 rpm, 20° C.
# Method: In this procedure, N-acetyl capped peptides were prepared using the protocol described in Example 1 above and subjected to analytical ultracentrifugation for sedimentation analysis. Three different samples were prepared from bis(h5)-K-K4 alone, bis(h9)-K-K4 alone, and a 1:1 molar ratio mixture of the two peptides, each with a final peptide concentration of 1 mM dissolved in DDI water and pH adjusted to 7 using a dilute solution of NaOH. For the analyses, 350 μL of each sample was loaded into a Beckman XL-I Analytical Ultracentrifuge cell and spun at 40,000 rpm for 3 hours at 20° C., with data collected using interference optics. The raw data was then processed using DCDT+2.2.1 software to obtain g(s*) distribution. Theoretical distribution (sum of individual peptide distribution) was obtained using OriginLab v. 7.0 software.
# [4] = Confocal microscopy of vesicles in 5,6-carboxyfluorescein solution; type: physicochemical; conditions: single peptide alone
# Method: About 25 μL of the sample was then mounted on a glass slide and covered with a coverslip and sealed. The slides were allowed to sit for 48-72 hours before pictures were taken using a confocal microscope. Upon sitting in the unbuffered 5,6-carboxyfluorescein solution for 48 hours, larger spherical entities than observed with TEM are formed, which can be seen with the light microscope. Specifically, in FIG. 7, peptides bis(h5)-K-K4 and bis(h9)-K-K4 at a 1:1 molar ratio when added to DDI water form larger vesicles on the order of 2-10 μm in diameter. […] The vesicles in this figure are large enough to have fluorescently-labeled peptide aggregates trapped within the vesicles.
substance,measurement,setting,value
"5,6-carboxyfluorescein [free fluorescent dye]",cellular uptake of dye,[1],hardly any uptake of the dye
"KKKFLIVIGSIIKKK [Linear … flanked by three lysine groups, from earlier studies (US 2009/0105449)]",vesicle formation,[2],do not form vesicles
"KKKFLIVIKKK [Linear FLIVI flanked by three lysine groups, from earlier studies (US 2009/0105449)]",vesicle formation,[2],do not form vesicles
"N-acetyl capped bis(h5)-K-K4: bis(h5)-K-K4 with the N-termini of both hydrophobic tails capped with an acetyl group (chain 1 Ac-FLIVIKKKKK-NH2; chain 2 Ac-FLIVI; also: branched: chain 2 tail attached to branch lysine K6 of chain 1, linkage amine not given here)",apparent S value,[3],around 6 S
"N-acetyl capped bis(h9)-K-K4: bis(h9)-K-K4 with the N-termini of both hydrophobic tails capped with an acetyl group (chain 1 Ac-FLIVIGSIIKKKKK-NH2; chain 2 Ac-FLIVIGSII; also: branched: chain 2 tail attached to branch lysine K10 of chain 1, linkage amine not given here)",apparent S value,[3],~10 S
"bis(h5)-K-K4: Branched amphipathic peptide: two FLIVI (SEQ ID NO: 4) tails on a branch lysine, KKKK C-terminal carboxyamide",ability of the peptide by itself to form vesicle structures,[4],unable to form these structures
"bis(h9)-K-K4: Branched amphipathic peptide: two FLIVIGSII (SEQ ID NO: 3) tails on a branch lysine, KKKK C-terminal carboxyamide",ability of the peptide by itself to form vesicle structures,[4],able to form these vesicle-like structures
same,stability of vesicle-like structures formed by the peptide alone,[4],somewhat unstable and rapidly fuse to produce the larger structures
